# According to the DeepSol protein solubility set:
# Assay: soluble on expression in E. coli; label from the status in PepcDB or PDB records
row,Sequence,soluble on expression in E. coli
1,MGSDKIHHHHHHMERSWTINGRFLAQPLTGVQRYAFEIVRALDELIVNQPLLASRLKIELLVPRDAKVPSLRAISTRAIAIAPMHGHLWEQAALAAHVRGGLLSFCNTGPLSVRKQILCIHDVNTRTYPQSYSLPFRLLYRTLLPALGRRVAAVATVSRYSAGELVRHRICGPDKITVIPNGHEHAASWKPRHSQRTRAVAGRDTIVVIGSAIAHKNTGLIIGMAERLAAVGLRIAVVGMSDARVYRTSGRKESASNVTWLGRLSDEELAALLQDCLCLAFPSFIEGFGLPPLEAMAIGCPIVVSNRASLPEICGEAALYASPNDAEAWFDRFMRVRNMPDVRDEMIGIGRMQASNFQWKASASRYLDIMAVLDGMSKPSGGPVAVSIA,not soluble
2,MAHHHHHHMSMKGSKNMLSPLVGNIYNNVYDHKELKMKSINEQNNMGSNNYNINYVNNNNSTLSNNNHSKQNLCYNNFSSHSPSINKDSIHEEKKNNFYEQHNYIDENATHHTMEEENYKNFKNSKNYEHTIDEDVMQNEYSNIIKDNHLKKKKKKKNIHHLNNKDINNTNLNYETNEQVLIDLPKNHLLNKLTTSIIHSINPHLISEYTHEDITKRTNKISTLKKKKKKKKIEREEIYESDVDNTNGEDNTNDVDNTNDEDNTNDEDNTNDGDNEQIHYHKQFDDQIQKQKNKQNKQKKEYKEFDVYETKGYIPLSNEHKQNKSVCFLDNHVKYYTQQNNVPYEKNIIYENNLNDHQAHSYYNNTLNQFTPNSDILNYNNYINKEYIQGIYNTNNYNIKQDSVYEPNEQVMFMSPQEEKYIYMNASPNNIIRNNDMVFYSGQLDNEQMNININNNNNINNNDNNINSSSSVNDGCFNLHLNNMNNIFNTCTNTQNKQKTHKSFFCNSSAKNVINNENNVKNNKTEILIYKNDKTNNYQNNNQTKQNIQSNNHYNNNNNNNGNHINKFRFFTPTSNNVFVRTRSLTPNTYQKKKKNSFFACSPLKDINLNRQKSLPPQLYTTQDITQPIYTHDISYNLSNKNNIIQNDPYNNIQNITTTLSYPLVNSNFVHLYPYQNSNTNNQIKKIENFNVSKNYMNESSTQTSTETSSKSSKDTSLWNTQIHLLNEKIKNMKTKMENITKEKNEVNELCKMYKVIKNHINVNV,not soluble
3,MNFFSLHPNVYATGRPKGLIGMLENVWVSNHTPGEGTLYLISGFSNYNGGVRFYETFTEHINQGGRVIAILGGSTSQRLSSRQVVEELLNRGVEVHIINRKRILHAKLYGTSNNLGESLVVSSGNFTGPGMSQNIEASLLLDNNTTQSMGFSWNDMISEMLNQNWHIHNMTNATDASPGWNLLYDERTTNLTLDETERVTLIVTLGHADTARIQAAPGTTAGQGTQYFWLSKDSYDFFPPLTIRNRRGTKATYSSLINMNYIDINYTDTQCRVTFEAENNFDFRLGTGKLRYTGVAKSNDIAAITRVGDSDYELRIIKQGTPEHSQLDPYAVSFIGNRGKRFGYISNEEFGRIIGVTF,soluble
4,MSLQQAVGMYVEAPTPDEAARLINSGRKLGIVIAVGVCEVFYTGRAAASLGPTRRLVILKRDGTLLVHEAEKAQPKIWNPPGSSTAAYVEGGKLVVKSIRSRPFETVRVIFDKVDFIAAFDVGATELTLVGSERDVVGALVKNPSIIEEGLEVVGVEVPTDVGHLDILARDKNGRYVIIEVKRDLATHEAVFQLARYVELYRRKGYDVRGILVAGDITASAYDYLKRYGLNFVKINPRELMVLTNKNPLNAKEGHHHHHH,soluble
5,SATLKVSDSVPAPSDDAEQLRTAFEGWGTNEDLIISILAHRSAEQRKVIRQAYHETYGEDLLKTLDKELSNDFERAILLWTLEPGERDALLANEATKRWTSSNQVLMEVACTRTSTQLLHARQAYHARYKKSLEEDVAHHTTGDFRKLLVSLVTSYRYEGDEVNMTLAKQEAKLVHEKIKDKHYNDEDVIRILSTRSKAQINATFNRYQDDHGEEILKSLEEGDDDDKFLALLRSTIQCLTRPELYFVDVLRSAINKTGTDEGALTRIVTTRAEIDLKVIGEEYQRRNSIPLEKAITKDTRGDYEKMLVALLGEDDA,soluble
6,MSLSETASWQPSASIPNLLKRAAIMAEIRRFFADRGVLEVETPCMSQATVTDIHLVPFETRFVGPGHSQGMNLWLMTSPEYHMKRLLVAGCGPVFQLCRSFRNEEMGRYHNPEFTMLEWYRPHYDMYRLMNEVDDLLQQVLDCPAAESLSYQQAFLRYLEIDPLSADKTQLREVAAKLDLSNVADTEEDRDTLLQLLFTFGVEPNIGKEKPTFVYHFPASQASLAQISTEDHRVAERFEVYYKGIELANGFHELTDAREQQQRFEQDNRKRAARGLPQHPIDQNLIEALKVGMPDCSGVALGVDRLVMLALGAETLAEVIAFSVDRAEGHHHHHH,soluble
7,MSLINVQNVSKTFILHQQNGVRLPVLNRASLTVNAGECVVLHGHSGSGKSTLLRSLYANYLPDEGQIQIKHGDEWVDLVTAPARKVVEIRKTTVGWVSQFLRVIPRISALEVVMQPLLDTGVPREACAAKAARLLTRLNVPERLWHLAPSTFSGGEQQRVNIARGFIVDYPILLLDEPTASLDAKNSAAVVELIREAKTRGAAIVGIFHDEAVRNDVADRLHPMGASEGHHHHHH,not soluble
8,SNAMKPENKIPVLTRLSDEMTAVVNFQQPGLPPWPADGDIETQRQYYLLERRFWNADAPSMTTRTCAVPTPYGDVTTRLYSPQPTSQATLYYLHGGGFILGNLDTHDRIMRLLARYTGCTVIGIDYSLSPQARYPQAIEETVAVCSYFSQHADEYSLNVEKIGFAGDSAGAMLALASALWLRDKHIRCGNVIAILLWYGLYGLQDSVSRRLFGGAWDGLTREDLDMYEKAYLRNDEDRESPWYCLFNNDLTRDVPPCFIASAEFDPLIDDSRLLHQTLQAHQQPCEYKMYPGTLHAFLHYSRMMTIADDALQDGARFFMARMKTPR,soluble
9,MGSDKIHHHHHHMTLQFLGAAREVTGSCHLVTVAGKHLLLDCGLIQGGKADELRNHEPFVFDPQTIVAVVLSHAHIDHSGRLPLLVKAGFDGPIYTHKATAELCAIMLKDAAMLQVRDTERTNKKRAKHDLAPLEPLFTVEDAEQAISQFVSLEYGQVTRVIPHVDICLSDAGHILGSALVELWLGEGKSQKKIVFSGDLGRAGMPILQNPTLVDTADLVLMESTYGNRFHRSWTDTLAELKDIFAKTVNESQGNILLPAFSVGRAQELLYLFHLYAKEWDLGRWKICLDSPMAIEATRVYVNNYPLMDEDFKRFTRQHPGQHPLLSNVEFIQTTEESIALNEVHKGLIIIAGSGMCNGGRIRSHLEHNLWRSECDVIICGFQALGTPGRALVDGAKELTIHGNSVNVAAKLHTVGGLSAHADQAELLRWYRHFEEQPPLVLVHGEPEAQQGLVAVMNQDPKTKPKALAIATRGDMLDLTALPKLVWVTA,not soluble
10,MGSDKIHHHHHHMEGHIVITGATGVIGSEVARRLIKSGREVVVFARSPQSAAAKVPGAADYVRWDSDMAPDGWSSSIDGAYAVIHLAGRPLLETRWTEEHKVACYDSRIKGTRALVAAMASASVKPKVFVSSSAIGYYGSFDRCEETDPLTEKAAPGKDFLAKICFDWEKEARPAETLGTRVVLLRTGIVLSTKGGMLQKMMIPFSYFVGGPVGSGDQCLSWIHLDDEVSIILQALDNADWSGPVNAVAPEPVSMKAFADSLGLVMHRPSLFPVPKLAVQILLGEGADYAVKGQKVSPEFLKERDFHFAWPSLNEALADLVSRGI,not soluble
11,GPGSMKVFHFHGTYRALGVRPKDFSLRAETVDGWRTPVLTSDWERHCDVEGIVTPALSSAGNAASALEPKGPVQVVVATFSLPPGSYATSVLREFCIRTTENGQGNDLETEDEYSSCADTMSHDGCQERRNGRRHHRPASRCIVTRSMRICSLCRSLSPLSLLLLTYVM,soluble
12,MTQQKLELTWFNKDQALIPQERGRYGYAWVDPHDPRYCQTHYLIEGETITGEQAPKQDGTQYGERADLEPTTDNLLINGESGDVLEALTRVPELADKYVGKVKCIYIDPPFNTAQTFANYEDNLEHSVWLTMMRDRLLHMKKLLSEDGSIWVHLDDVENHRMRLLMDEVFGAGNFVAEVVWEKTYSPRNDSKGIPAVTDTILVYRKSDQFSPNRLPRTAEMNARYKNPDHDRNGPWKSGDTTAPGNMSGKVQHPSVFAIQHPVTGQFIYPTYGRMWCFGQERILSSLSRYAPYRLAEPDMKSRSKRTGIPEEQLRADVFDLVVDETARQGDKTQAFRNISLGNWPEFFITDKGFGRKVPMSKSDGRVAPNLLRWEEVGHTDGAKKEITALFPNQAA,not soluble
13,MGSDKIHHHHHHLKNELAVIDIGSNSIRYVIFHPIDSGRYIEKINVKVVARLSAHIDAEGALDSVGIRLLCETLQRFHEIGITHHVEETICVATAAIRNASNRQDIVHAVEQETPFTMRVLSDEQEAYYGYFAIINSTFLTDGYSVDIGGGSMEVTLIENREMIAYHSFPFGAVTLTRQFLSGETMTSGEQKKLIKFLREQFDEIPWLKNKKLPLIGVGGSARNFVRIHQSTLDYPLHGIHQYQVRSKELGKLIDELEDKAPKQLMKVEGLSKDRVDIFLPALIAIHELALHIEAEQFVMSNYGLREGLVYEYDLHEQEQRRIENVREESLYQLESDYKVNRDRMNYLGTIAKSIYRQLVTLDIIPNRAADLRLLDSASRLLYCGQYINPDTRSNQTFYLLTNTDLKGMTHKDRLALALVSSYSSSKRIQQLLKPFKDWFTDKSIERFDLLGSILKLTEALDVTERRAVDSLEIALEKDKKDLRIILDTGDHDYGFEVEKAEKQKKHLERIIDRSIQFDNKGGGLT,not soluble
14,EDYEKVPLPNSVFVNTTESCEVERLFKATSPRGEPQDGLYCIRNSSTKSGKVLVVWDETSNKVRNYRIFEKDSKFYLEGEVLFVSVGSMVEHYHTHVLPSHQSLLLRHPYGYT,soluble
15,TSDDHVPVDITDLLDRAAHDAARIYPDLDVSLVPSPTCIIVGLPAGLRLAVDNAIANAVKHGGATLVQLSAVSSRAGVEIAIDDNGSGVPEGERQVVFERFSRGSTASHSGSGLGLALVAQQAQLHGGTASLENSPLGGARLVLRLPGPS,soluble
16,MPRRPGTPRGPQGGRRLLVISASMGAGHDTVAAELVRRARERGDTAQTVDVLALLPYGLGAVLRCFYRGSVRHFPWAYAALYRLFLRPGAGRRPSGTPLARLAGDRLRELAARTGADVVVPVFHLGAQLTGHLRDRGLLPVPSVVLVIDFELHRQWLHPGNDHCLCLTEEAAREARGNTGTPAETCGPVVAPEFSAGRVPGAAQWRETFDRLGPGRPAVVLSAGAWGVGSHLDATVRLLVDHGYLPVVLCGDNQRLRRTLSGTPGVLALGWVTDMPGLLHAARALIDNAAGQTAVQALAAGLPVVGHRPIPGHGADGVRRMAALGVSEVAEDRTALLEALARLTAPGPDRRRRIAAGRALFTGNADALTLVTDLADAARADVRRLEHHHHHH,not soluble
17,MANSITADEIREQFSQAMSAMYQQEVPQYGTLLELVADVNLAVLENNPQLHEKMVNADELARLNVERHGAIRVGTAQELATLRRMFAIMGMYPVSYYDLSQAGVPVHSTAFRPIDDASLARNPFRVFTSLLRLELIENEILRQKAAEILRQRDIFTPRCRQLLEEYEQQGGFNETQAQEFVQEALETFRWHQSATVDEETYRALHNEHRLIADVVCFPGCHINHLTPRTLDIDRVQSMMPECGIEPKILIEGPPRREVPILLRQTSFKALEETVLFAGQKQGTHTARFGEIEQRGVALTPKGRQLYDDLLRNAGTGQDNLTHQMHLQETFRTFPDSEFLMRQQGLAWFRYRLTPSGEAHRQAIHPGDDPQPLIERGWVVAQPITYEDFLPVSAAGIFQSNLGNETQTRSHGNASREAFEQALGCPVLDEFQLYQEAEERSKRRCGLLLEHHHHHH,soluble
